Test results from publication PMC5645086, “Analysis of the interaction of Plexin-B1 and Plexin-B2 with Rnd family proteins” (PLoS ONE, 2017).
Positions count from the first letter of the chain named.

T1: Rnd2 GTP-binding domain (residues 2-184) (UniProt P52198 2-184)
T1 construct: source: E. coli BL21 (DE3), purified (Nickel-NTA, TEV cleavage; in some cases ion exchange or size exclusion chromatography); not shown: His6, N-terminal, cleaved
T1 sequence (looked up): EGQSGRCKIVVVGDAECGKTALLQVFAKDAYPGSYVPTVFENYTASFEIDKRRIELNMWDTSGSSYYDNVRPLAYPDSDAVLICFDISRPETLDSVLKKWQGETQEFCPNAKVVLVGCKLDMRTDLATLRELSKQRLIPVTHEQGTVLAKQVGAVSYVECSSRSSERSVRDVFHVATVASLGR

T2: Rnd1 GTP-binding domain (residues 1-191) (UniProt Q92730 1-191)
T2 construct: source: E. coli Rosetta 2 (DE3), purified (Nickel-NTA, TEV cleavage; in some cases ion exchange or size exclusion chromatography); not shown: His6, N-terminal, cleaved
T2 sequence (looked up): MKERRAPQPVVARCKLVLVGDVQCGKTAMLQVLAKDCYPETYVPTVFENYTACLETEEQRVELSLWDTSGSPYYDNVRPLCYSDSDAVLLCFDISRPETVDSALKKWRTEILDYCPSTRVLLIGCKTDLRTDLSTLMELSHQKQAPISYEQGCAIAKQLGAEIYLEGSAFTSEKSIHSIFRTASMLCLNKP

T3: Rnd3 GTP-binding domain (residues 16-200), wild type (UniProt P61587 16-200)
T3 construct: source: E. coli BL21 (DE3), purified (Nickel-NTA, TEV cleavage; in some cases ion exchange or size exclusion chromatography); not shown: His6, N-terminal, cleaved
T3 sequence (looked up): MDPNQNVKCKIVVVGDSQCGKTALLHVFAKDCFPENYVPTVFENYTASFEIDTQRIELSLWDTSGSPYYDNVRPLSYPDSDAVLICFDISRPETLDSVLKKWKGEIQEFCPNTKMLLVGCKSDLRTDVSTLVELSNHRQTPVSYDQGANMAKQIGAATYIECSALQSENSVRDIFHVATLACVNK

T4: Rnd3-Y60A (GTP-binding domain, residues 16-200) (UniProt P61587 16-200, Y60A)
T4 construct: source: E. coli BL21 (DE3), purified in the same way as wild type Rnd3; not shown: His6, N-terminal, cleaved
T4 sequence (looked up): T3 sequence (looked up) with Y45A

T5: Rnd3-N86R (GTP-binding domain, residues 16-200) (UniProt P61587 16-200, N86R)
T5 construct: source: E. coli BL21 (DE3), purified in the same way as wild type Rnd3; not shown: His6, N-terminal, cleaved
T5 sequence (looked up): T3 sequence (looked up) with N71R

T6: Rnd3-F124Y (GTP-binding domain, residues 16-200) (UniProt P61587 16-200, F124Y)
T6 construct: source: E. coli Rosetta 2 (DE3), purified in the same way as wild type Rnd3; not shown: His6, N-terminal, cleaved
T6 sequence (looked up): T3 sequence (looked up) with F109Y

T7: Rnd1 GTP-binding domain (residues 1-191) (UniProt Q92730 1-191)
T7 construct: Cloned into pETDuet-1; tag removed with TEV protease; source: E. coli Rosetta 2 (DE3), purified (Nickel-NTA chromatography, TEV cleavage; in some cases ion exchange or size exclusion chromatography); not shown: His6, N-terminal, cleaved
T7 sequence (looked up): T2 sequence (looked up)

B1: Plexin-B1-RBD (Rho-binding domain of Plexin-B1, residues 1746-1851), histidine-tagged (domain or fragment, UniProt O43157 1746-1851, looked up)
chain: YRPLTLNALLAVGPGAGEAQGVPVKVLDCDTISQAKEKMLDQLYKGVPLTQRPDPRTLDVEWRSGVAGHLILSDEDVTSEVQGLWRRLNTLQHYKVPDGATVALVP
notes: A TEV protease site lies between the hexahistidine tag and the domain; Vector pETDuet-1; also called HisPlexin-B1; Plexin-B-RBD; source: E. coli BL21 (DE3), purified (Nickel-NTA; in some cases ion exchange or size exclusion chromatography); not shown: His6, N-terminal, kept
B2: Plexin-B1-RBD (Rho-binding domain of Plexin-B1, residues 1746-1851), histidine-tagged (domain or fragment, UniProt O43157 1746-1851, looked up)
chain: B1 chain
notes: A TEV protease cleavage site lies between the hexahistidine tag and the domain; removal of the tag was inefficient for Plexin-B1-RBD, so the tag was kept; Cloned into pETDuet-1; also called HisPlexin-B1; source: E. coli BL21 (DE3), purified (Nickel-NTA chromatography; in some cases ion exchange or size exclusion chromatography); not shown: His6, N-terminal, kept
B3: Plexin-B2-RBD (Rho-binding domain of Plexin-B2, residues 1452-1562) (domain or fragment, UniProt O15031 1452-1562, looked up)
chain: GLLGDDVEYAPLTVSVIVQDEGVDAIPVKVLNCDTISQVKEKIIDQVYRGQPCSCWPRPDSVVLEWRPGSTAQILSDLDLTSQREGRWKRVNTLMHYNVRDGATLILSKVG
notes: Vector pETDuet-1; tag removed with TEV protease; source: E. coli BL21 (DE3), purified (Nickel-NTA, TEV cleavage; in some cases ion exchange or size exclusion chromatography); not shown: His6, N-terminal, cleaved

Columns and labels:
Rnd2 (Homo sapiens) = Rnd2 (Homo sapiens) (UniProt P52198); settings: cited from earlier work
[1] = target: T1, Rnd2 GTP-binding domain (residues 2-184); assay: ITC; Plexin-B-RBD (400-600 uM, syringe) titrated into Rnd protein (40-60 uM, cell); 25°C; buffer 2: 50 mM sodium phosphate pH 7.0, 150 mM NaCl, 4 mM MgCl2, 3 mM DTT; independent binding sites model; settings: both partners purified
[2] = target: T2, Rnd1 GTP-binding domain (residues 1-191); assay: as above; settings: both partners purified
[3] = target: T3, Rnd3 GTP-binding domain (residues …); assay: as above; settings: both partners purified
[4] = target: the molecule itself; assay: ITC; control dilution: Plexin-B1-RBD titrated into buffer alone, same conditions as the binding titrations; dimer to monomers
[5] = target: T4, Rnd3-Y60A (GTP-binding domain, residues …); assay: ITC; Plexin-B-RBD (400-600 uM, syringe) titrated into Rnd protein (40-60 uM, cell); 25°C; buffer 2: 50 mM sodium phosphate pH 7.0, 150 mM NaCl, 4 mM MgCl2, 3 mM DTT; independent binding sites model; settings: both partners purified
[6] = target: T5, Rnd3-N86R (GTP-binding domain, residues …); assay: as above; settings: both partners purified
[7] = target: T6, Rnd3-F124Y (GTP-binding domain, …); assay: as above; settings: both partners purified
[8] = target: T7, Rnd1 GTP-binding domain (residues 1-191); assay: ITC; Plexin-B1-RBD in the syringe titrated into Rnd1 in the cell; low salt buffer 1: 50 mM sodium phosphate pH 7.0, 50 mM NaCl, 4 mM MgCl2, 3 mM DTT, 25°C; independent binding sites model; mean and SD of 5 fitted binding curves; settings: both partners purified

Rnd2 (Homo sapiens), sequence (P52198 1-224): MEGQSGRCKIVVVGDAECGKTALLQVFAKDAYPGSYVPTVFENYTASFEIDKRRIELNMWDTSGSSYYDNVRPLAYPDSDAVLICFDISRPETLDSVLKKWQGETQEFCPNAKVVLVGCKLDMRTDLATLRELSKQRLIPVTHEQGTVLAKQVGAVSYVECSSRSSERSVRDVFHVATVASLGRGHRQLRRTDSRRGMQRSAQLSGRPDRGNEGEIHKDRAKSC

Molecule | Kd [1] [µM] | dH [1] [kcal/mol] | stoichiometry N [1] | Kd [2] [µM] | dH [2] [kcal/mol] | stoichiometry N [2] | Kd [3] [µM] | dH [3] [kcal/mol] | stoichiometry N [3] | Kd [5] [µM] | dH [5] [kcal/mol] | stoichiometry N [5] | Kd [6] [µM] | dH [6] [kcal/mol] | stoichiometry N [6] | Kd [7] [µM] | dH [7] [kcal/mol] | stoichiometry N [7] | other results
Plexin-B1 RBD (from UniProt O43157) |  |  |  |  |  |  |  |  |  |  |  |  |  |  |  |  |  |  | Kd (Rnd2 (Homo sapiens)): > 20 µM
B1 | 7.64 | -7.33 | 1.16 | 2.37 | -15.6 | 0.85 | 6.62 | -9.73 | 1.07 | 7.26 | -2.76 | 1.02 | 8.12 | -5.53 | 0.91 | 4.6 | -8.65 | 1.04 | binding result [4]: binds
B2 |  |  |  |  |  |  |  |  |  |  |  |  |  |  |  |  |  |  | Kd [8]: 5.37 µM; stoichiometry N [8]: 0.94
B3 | 4.93 | -4.29 | 1.15 | 11.1 | -6.67 | 1.05 | 3.01 | -9.33 | 1.23 | 3.06 | -5.64 | 1.06 | 3.86 | -7.37 | 1.13 | 2.97 | -7.73 | 1.14 | 
